Laboratory results from publication PMC2117344, “A New In Vitro Strand Transfer Assay for Monitoring Bacterial Class 1 Integron Recombinase IntI1 Activity”.

T1: IntI1(his)6 wild type (Pseudomonas aeruginosa Pa695 (class 1 …, UniProt Q7BP41 1-337))
T1 sequence: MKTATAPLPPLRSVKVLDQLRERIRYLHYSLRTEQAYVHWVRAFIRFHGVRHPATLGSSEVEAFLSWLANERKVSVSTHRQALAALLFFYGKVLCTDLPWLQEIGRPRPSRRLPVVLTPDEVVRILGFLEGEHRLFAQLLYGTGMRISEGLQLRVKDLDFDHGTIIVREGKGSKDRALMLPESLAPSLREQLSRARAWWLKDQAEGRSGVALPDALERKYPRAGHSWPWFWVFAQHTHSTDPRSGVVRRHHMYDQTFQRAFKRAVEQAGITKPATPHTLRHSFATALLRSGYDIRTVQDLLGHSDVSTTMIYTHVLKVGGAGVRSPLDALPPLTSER


Biological target: T1, IntI1(his)6 wild type
Assay: EMSA; 20 min at 4 C in 20 ul, 0.1 pmol DNA, 1-10 pmol IntI1, 1% agarose gel at 4 C; filter wash buffer 20 mM HEPES pH 7.5, 10 mM MnCl2, 30 mM NaCl (pre-wash 10 mM NaCl, 100 ug/ml calf thymus DNA); exact binding buffer not given
Conditions: protein: recombinant, tags: C-terminal His6 (pET101D-Topo), label: 5' 32P

Row | Binder | binding result (single strand) | binding result (blunt)
1 | attC bottom strand (attCbs) (ssDNA) DNA: AGTGCATCTAACGCCTGAGTTAAGCCGCGGTGCGCAGTGGCAAGCGGCGTGCGAAGCTTAGCGTAGCACGCAAGCGCCGCCACGAAGCAACGTCGGCTTGAACGAATTGTTAGACGGGCG | binds | –
2 | attC top strand (attCts) (ssDNA) DNA: CGCCCGTCTAACAATTCGTTCAAGCCGACGTTGCTTCGTGGCGGCGCTTGCGTGCTACGCTAAGCTTCGCACGCCGCTTGCCACTGCGCACCGCGGCTTAACTCAGGCGTTAGATGCACT | no binding | –
3 | attI1ds (dsDNA) DNA 1: ACGCCGTGGGTCGATGTTTGATGTTATGGAGCAGCAACGATGTTACGCAGCAGGGCAGTCGCCCTAAAACAAAGTTAGGTGGCTCAATGAGCATCATTGC DNA 2: GCAATGATGCTCATTGAGCCACCTAACTTTGTTTTAGGGCGACTGCCCTGCTGCGTAACATCGTTGCTGCTCCATAACATCAAACATCGACCCACGGCGT | – | binds
